# Test results: patent publication US10501502B2, “Allophycocyanin alpha-subunit evolved labeling proteins (smURFPs)” (The Regents of the University of California, priority 2016, dated 2019)
# Positions count from the first letter of the chain named.
# B1: TeAPCα: Trichodesmium erythraeum allophycocyanin α-subunit, nonfluorescent parent protein, SEQ ID NO: 1 (protein)
# chain: MKTGEQRVKIATLLSENEKKIVDKASQDLWRRRPDFIAPGGNAFGQRERALCLRDYGWYLRLITYGLLAGDKDPIESIGLIGVREMYNSLGVPVPGMVESIRCLKEASLSLLDEEDAKETAPYFDYIIQAMS
# modifications: smRUFP Variant Polypeptide
# B2: R2-1 + PCB: evolved APCα FP, SEQ ID NO: 3, with PCB (protein)
# chain: B1 chain with N42I, Y65F, G66C
# modifications: phycocyanobilin chromophore; smRUFP Variant Polypeptide
# B3: R3-2 + PCB: evolved APCα FP, SEQ ID NO: 4, with PCB (protein)
# chain: B1 chain with N42I, Y65F, G66C, V83I, V98M
# modifications: phycocyanobilin chromophore; smRUFP Variant Polypeptide
# B4: R5-2: evolved APCα FP, SEQ ID NO: 6, with BV (protein)
# chain: MKTCEQRVKIATLLSENEKKIVDKASQDLWRRRPDFIAPGGIAFSQRERALCLRDHRWYLHLITFCLLAGDKDPIESIGLIGIREMYNSLGVPVPGMMESIRCLKEASLSLLDEEDAKETAPYFDYIIKAMS
# modifications: biliverdin chromophore; smRUFP Variant Polypeptide
# B5: R6-6: evolved APCα FP, SEQ ID NO: 7, with BV (protein)
# chain: B4 chain with F36L, H56Y, R57G, D73G
# modifications: biliverdin chromophore; smRUFP Variant Polypeptide
# Tests used:
# HEK293A cells = test: Fluorescence imaging of FPs in HEK293A cells with chromophore addition or HO-1 expression; assay type: cell-based; conditions: smURFP/TDsmURFP in HEK293A cells
# Excerpt: smURFP codons were optimized for human cell expression, and the gene was created by GenScript. smURFP, TDsmURFP (created from mammalian-optimized smURFP), IFP1.4 (mammalian-optimized form^35), IFP2.0 (mammalian-optimized form^46), and iRFP713 (mammalian-optimized form^36) were PCR amplified using Phusion High-Fidelity DNA Polymerase (NEB) with primers containing 5′ HindIII and 3′ XhoI restriction enzyme sites. HindIII-HF and XhoI (NEB)-digested PCR fragments were gel purified (Zymoclean Gel DNA Recovery Kit) and were ligated (T4 DNA Ligase, Life Technologies) into a similarly digested pCDNA3-IRES-eGFP vector (bicistronic to express two FPs in the same cell). For creation of HO-1-expressing mammalian vec-tors, the Synechocystis HO-1 was used, and the codons were not optimized for mammalian expression. Synechocystis HO-1 was directly amplified from the pBAD vector using primers containing 5′ BsiWI and 3′ XbaI restriction enzyme sites. pCDNA3 smURFP, TDsmURFP, IFP1.4, IFP2.0, or iRFP713-IRES-eGFP vectors were digested with BsiWI and XbaI (NEB), dephosphorylated (SAP, Roche), gel purified (Zymoclean Gel DNA Recovery Kit), and ligated (T4 DNA Ligase, Life Technologies) with similarly digested, purified HO-1 PCR fragment. For creation of smURFP fusions, smURFP was PCR amplified using Phusion High-Fidelity DNA Polymerase (NEB) with primers containing 5′ AgeI and 3′ NotI restriction enzyme sites for N-terminal fusions or with primers containing 5′ AgeI and 3′ BspEI restriction enzyme sites for C-terminal fusions. mGeos2-VEL-ManII-N-10 (Addgene 57551) and Dronpa-PDHA1-N-10 (Addgene 57292) vectors were digested with AgeI and NotI (NEB) and mCherry-αTubulin-C-18 (Addgene 55148) and tdTomato-LaminB1-10 (Addgene 58107) were digested with AgeI and BspEI, dephosphorylated (SAP, Roche), gel purified (Zymoclean Gel DNA Recovery Kit), and ligated (T4 DNA Ligase, Life Technologies) with similarly digested, purified smURFP PCR fragment. HEK293A (Invitrogen, Life Technologies), HT1080 (ATCC), and PC3 (ATCC) cells were grown in Dulbecco's Modified Eagle's medium (DMEM, Corning), supplemented with 10% FBS (Atlanta Biologicals)+1×penicillin—streptomycin (Fisher Scientific), which is referred to as growth media, on poly-D-lysine-coated glass-bottom culture dishes (MatTek, No. P35G-0-14-C). The HEK cell line is listed in the ICLAC and NCBI biosample databases and is commonly misidentified as the HeLa cell line. For expression of exogenous fluorescent proteins, there is no problem if there is a contaminating cell line because no endogenous biology or therapeutic results are being determined. HEK293A cells were purchased from Invitrogen (Life Technologies), and all experiments are derived from the same expanded frozen stock without cell line authentication or mycoplasma detection. Cells were transfected using 2 μg of circular DNA+5 μl Lipofectamine 2000 (Life Technologies) in 2 ml Opti-MEM (Life Technologies) for 4-5 h, transfection media was discarded, and prewarmed growth media was added. Chromophores (5 mM in DMSO) were added at indicated concentrations to growth media, warmed for 10-15 min at 37° C., and added to cells. For multiple timepoints, incubations were staggered to maintain equivalent incubation. Prior to imaging, cells were washed 1×2 ml growth media, 2×2 ml imaging solution, and imaged in 2 ml imaging solution. Fluorescence imaging was performed on a Zeiss Axiovert 200M inverted microscope controlled by SlideBook software. FPs were imaged with the following settings: eGFP, EX/EM=495(10)/535(25) nm, tdTomato EX/EM=540(25)/595(50) nm; mCherry and mCardinal, EX/EM=580(20)/653(95) nm; smURFP and TDsmURFP, EX/EX=628(40)/680(30) nm; and IFP1.4, IFP2.0, and iRFP713, EX/EM=665(45)/725(50) nm. […]
# Escherichia coli = test: Fluorescence of FPs expressed in Escherichia coli; assay type: cell-based
# Procedure: TeAPCα gene (codons optimized for Escherichia coli) was made by GenScript. Mutations were placed by random mutagenesis using GeneMorphII Random Mutagenesis Kit (Agilent Technologies). Screens for mutants that fluoresce with PCB or BV were performed by subcloning into a pBAD vector (Life Technologies) that expressed cyanobacteria Synechocystis HO-1 and Synechocystis PcyA genes for PCB production and Synechocystis HO-1 only for BV production, as previously described^34. Libraries were expressed in TOP 10 Electrocompetent Escherichia coli cells (Life Technologies) with addition of 0.2% arabinose to LB agar plates (FPs were constitutively expressed in Escherichia coli). Fluorescence was imaged on plates using a BioSpectrum AC Imaging System (UVP) with EX/EM=628(40)/690(50) nm for FPs+PCB, EX/EM=685(40)/710LP nm for rounds 4 and 5 FPs+BV, and EX/EM=650(13)/690(50) nm for Cy5-like FPs+BV (rounds 6-12). At round 6, 5-10 of the brightest colonies on each plate were combined in LB+0.2% arabinose, grown ˜18 h, mixture of plasmid DNA was purified, and TOP10 cells were transformed and plated on LB agar plates+0.2% arabinose. Fluorescence was screened on plates (as described above), 10-20 of the brightest colonies were screened in liquid culture fluorescence (FIG. 7a-e), plasmid DNA was purified, and DNA was sequenced. The plasmid DNA of 2-3 of the brightest FPs was chosen for mutagenesis for the subsequent round. When choosing DNA for subsequent mutagenesis rounds, genes with increased and/or novel silent DNA mutations were chosen over other DNA that had the same DNA and/or protein sequence of the previous round. Site-specific mutagenesis was performed using QuikChange Lightning Mutagenesis Kit (Agilent Technologies) to create smURFP (C4S mutation) and smURFP C52S.
# [1] = FP purification and fluorescence characterization in vitro (spectra, extinction coefficient, quantum yield); assay type: physicochemical; conditions: for Molecular Brightnes Relative to smURFP / Emission Maximum / Excitation Maximum / Extinction Coefficient / Quantum Yield: Table 4; for Emission Maximum / Excitation Maximum / Extinction Coefficient / Quantum Yield: evolved APCα FPs
# Procedure: FP genes were expressed on a pBAD vector (Life Technologies) with a polyhistidine tag on the C terminus, cells were lysed with B-PER (Thermo Scientific), and purified using Ni-NTA (Qiagen) puri-fication. PCB (HO-1+PcyA) and BV (HO-1) incorporation in Escherichia coli was performed simultaneously during constitu-tively active FP expression. Extinction coefficient was determined by PCB or BV absorbance as described35,36 (Table 3, smURFP+BV and TDsmURFP+BV, and Table 2) or calculated for the apoproteins by determining the protein concentration by the BCA protein assay (Pierce), and a specific chromo-phore concentration was added (specified in the Purification of FP lacking chromophore and in vitro chromophore incorporation section) to get 1 and 2 chromophore species (Table 5, not including (Escherichia coli)). When FP chromophore (PCB or BV) was expressed in Escherichia coli, the PCB and BV Q band had absorbance that overlapped with detection of BCA or Bradford assay of 562 nm and 592 nm, respectively. We used the previously published protocols35,36, where there was no change of the BV absorbance at 390 nm when free in solution or attached to the FP. smURFP+BV denaturation with 1 M urea caused no change in the BV absorbance at 390 nm, but the Q band was reduced ˜20-fold. Therefore, the extinction coefficient of BV at 390 nm was used to calculate the concentration of holoprotein (FP+PCB or BV) concentration.
# EX and EM spectra were obtained using SPEX Fluorolog fluorometer (Horiba). Absorbance spectra were obtained using UV-VIS Spectrophotometer Cary Eclipse (Varian) or UV-2700 (Shimadzu). Quantum yield was determined relative to Cy5. Incorporation rates of BV on 0.5 μM smURFP was performed by addition of smURFP to PBS alone or with 20% fetal bovine serum (FBS) and mixed by pipetting in a quartz cuvette. Chromophore was added last, mixed by pipetting, and fluorescence was recorded using SPEX Fluorolog fluorometer (Horiba). Photobleaching was characterized on bubbles of purified FP or Cy5 within mineral oil using light from a 150 W xenon arc lamp with 100% light through EX/EM=628(40)/680(30) nm for smURFP, TDsmURFP, and Cy5 or EX/EM=665 (45)/725 (50) nm for IFP 1.4 focused with a 40×, 1.2 numerical aperture C-Apochromat oil-immersion lens on a Zeiss Axiovert 200M inverted microscope. Photobleaching times were normalized to reflect an initial illumination intensity producing 1,000 photons per fluorescent molecule per second as previously described^37.
# HO-1 was removed by digesting the pBAD vector (Life Technology) with MscI and PmeI (NEB). smURFP and TDsmURFP were expressed and purified as described above. No chromophore was present on smURFP and TDsmURFP (confirmed by UV, fluorescence imaging, and MS). For predominant fluorescent species+2 chromophores, a ten-fold excess of chromophore was added to smURFP and TDsmURFP. For predominant fluorescent species+1 chromophore, a quarter concentration of chromophore was added to smURFP and TDsmURFP. Chromophore was added in PBS+10% FBS at 37° C. overnight. smURFP+chromophore and TDsmURFP+chromophore were purified using NiNTA (Qiagen) to remove excess or noncovalently attached chromophore.
Molecule,chromophore concentration reaching saturation of fluorescence (HEK293A cells) [µM],chromophore concentration required for fluorescence similar to 2.5 μM BVMe2 (HEK293A cells) [µM],fluorescence when expressed in E. coli (qualitative) (Escherichia coli),fold brighter than R1+PCB (Escherichia coli; expressed in E. coli) [fold],extinction coefficient (EC) [1],quantum yield (QY) [1] [%],Molecular Brightnes Relative to smURFP [1] [%],Emission Maximum [1] [nm],Excitation Maximum [1] [nm],Extinction Coefficient [1],Quantum Yield [1] [%],red-shift of excitation and emission relative to R3-2+PCB [1] [nm]
"C=CC1=C(C)/C(=C/C2=NC(=C\c3[nH]c(/C=C4/NC(=O)C(C)=C4C=C)c(C)c3CCC(=O)OC)/C(CCC(=O)OC)=C2C)NC1=O [BVMe2, biliverdin dimethylester, reference compound]",≤ 2.5,–,–,–,–,–,–,–,–,–,–,–
"phycocyanobilin [PCB, reference compound]",–,≥ 40,–,–,–,–,–,–,–,–,–,–
B1,–,–,showed no fluorescence,–,–,–,–,–,–,–,–,–
B2,–,–,lacked fluorescence with BV,27,"65,000 M^−1cm^−1",7.2,14,648,626,"65,000 M^−1 cm^−1",7.2,–
B3,–,–,lacked fluorescence with BV,–,"74,000 M^−1cm^−1",13,30,648,620,"74,000 M^−1 cm^−1",13,–
B4,–,–,–,–,"71,000 M^−1cm^−1",5.3,12,696,671,"71,000 M^−1 cm^−1",5.3,~49
B5,–,–,–,–,"190,000 M^−1cm^−1",9.6,56,676,648,"190,000 M^−1 cm^−1",9.6,–
